How the values were obtained:
[1] = biological target: T1, GST fusion of the cytoplasmic domain of human desmoglein-3 (human, UniProt P32926 641-999); assay: pull-down; GST-tagged cytoplasmic domains of Dsg1-3 immobilised on glutathione sepharose, HaCaT lysate (1 mg), overnight at 4 °C; 10 mM Tris-HCl pH 8.0, 150 mM NaCl, 5 mM EDTA, 0.5% Triton X-100, 60 mM N-octylglucoside; Western blot; GST as negative control; conditions: one partner purified
T1 construct: cytoplasmic domain of human desmoglein-3, cloned by PCR from HaCaT cells into pGEX-4T1; worked out from the printed primers: the forward primer begins with the codons for LTCDCGA, the reverse primer holds the stop codon (ends DPCSRLI-stop); also called Dsg3 tail; cytoplasmic tail of Dsg3; source: E. coli Rosetta (DE3) pLysS, purified (glutathione sepharose)
T1 sequence (looked up): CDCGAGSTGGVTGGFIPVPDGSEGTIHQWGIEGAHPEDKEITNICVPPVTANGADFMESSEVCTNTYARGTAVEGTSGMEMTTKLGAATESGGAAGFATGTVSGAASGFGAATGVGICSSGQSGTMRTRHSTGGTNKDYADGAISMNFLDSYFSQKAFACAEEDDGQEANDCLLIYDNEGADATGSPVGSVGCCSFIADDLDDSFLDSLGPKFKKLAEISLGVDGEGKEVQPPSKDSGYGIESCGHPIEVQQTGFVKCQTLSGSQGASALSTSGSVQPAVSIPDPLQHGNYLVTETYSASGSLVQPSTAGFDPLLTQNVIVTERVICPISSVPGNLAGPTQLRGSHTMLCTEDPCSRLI

[2] = biological target: T2, flotillin-1-GST fusion (rat, full length) (rat, UniProt Q9Z1E1 1-428); assay: pull-down; Dsg3-MBP (5 μg) immobilised on amylose resin, eluted flotillin-GST proteins in solution; 50 mM Tris-HCl pH 7.5, 150 mM NaCl, 0.01% Triton X-100, 1 mM DTT, 1 mM EDTA, 1% BSA, on ice 2-3 h; Western blot; MBP and GST as controls; conditions: both partners purified
T2 construct: full length rat flotillin-1 in the pET41a vector; pET41a may add further tags (His, S-tag) besides GST (surmised); also called Flot-GST; flotillin-GST; source: E. coli Rosetta (DE3) pLysS, purified (glutathione sepharose, eluted with reduced glutathione)
T2 sequence (looked up): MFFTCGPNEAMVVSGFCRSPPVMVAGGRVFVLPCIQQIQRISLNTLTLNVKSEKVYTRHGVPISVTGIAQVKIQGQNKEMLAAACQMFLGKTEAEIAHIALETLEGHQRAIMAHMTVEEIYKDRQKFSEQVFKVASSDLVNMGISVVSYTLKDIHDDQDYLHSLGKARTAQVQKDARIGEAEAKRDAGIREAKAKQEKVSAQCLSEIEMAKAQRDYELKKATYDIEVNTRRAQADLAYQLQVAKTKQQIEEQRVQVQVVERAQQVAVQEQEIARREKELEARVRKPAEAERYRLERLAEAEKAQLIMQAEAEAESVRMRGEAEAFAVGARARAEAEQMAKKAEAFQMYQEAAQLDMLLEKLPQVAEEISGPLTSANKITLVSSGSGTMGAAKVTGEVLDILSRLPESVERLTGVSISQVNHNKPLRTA

B1: flotillin-2 (natural protein, human (endogenous in HaCaT), UniProt Q14254 1-428, looked up)
chain: MGNCHTVGPNEALVVSGGCCGSDYKQYVFGGWAWAWWCISDTQRISLEIMTLQPRCEDVETAEGVALTVTGVAQVKIMTEKELLAVACEQFLGKNVQDIKNVVLQTLEGHLRSILGTLTVEQIYQDRDQFAKLVREVAAPDVGRMGIEILSFTIKDVYDKVDYLSSLGKTQTAVVQRDADIGVAEAERDAGIREAECKKEMLDVKFMADTKIADSKRAFELQKSAFSEEVNIKTAEAQLAYELQGAREQQKIRQEEIEIEVVQRKKQIAVEAQEILRTDKELIATVRRPAEAEAHRIQQIAEGEKVKQVLLAQAEAEKIRKIGEAEAAVIEAMGKAEAERMKLKAEAYQKYGDAAKMALVLEALPQIAAKIAAPLTKVDEIVVLSGDNSKVTSEVNRLLAELPASVHALTGVDLSKIPLIKKATGVQV
notes: flotillin-2, endogenous in human HaCaT keratinocytes; also called Flot-2; source: endogenous, HaCaT lysate
[1]
  relative amount pulled down (normalised to the fusion protein), against the Dsg1 and Dsg2 pulldowns: ~2 fold

B2: Dsg3-MBP fusion protein (domain or fragment, human, UniProt P32926 641-999, looked up)
chain: T1 sequence (looked up)
notes: cytoplasmic domain of human desmoglein-3, cloned by PCR from HaCaT cells into pMAL-c2X; worked out from the printed primers: the forward primer begins with the codons for LTCDCGA, the reverse primer holds the stop codon (ends DPCSRLI-stop); source: E. coli Rosetta (DE3) pLysS, purified (amylose resin)
[2]
  binding result: binds

B3: flotillin-1 (natural protein, human (endogenous in HaCaT), UniProt O75955 1-427, looked up)
chain: MFFTCGPNEAMVVSGFCRSPPVMVAGGRVFVLPCIQQIQRISLNTLTLNVKSEKVYTRHGVPISVTGIAQVKIQGQNKEMLAAACQMFLGKTEAEIAHIALETLEGHQRAIMAHMTVEEIYKDRQKFSEQVFKVASSDLVNMGISVVSYTLKDIHDDQDYLHSLGKARTAQVQKDARIGEAEAKRDAGIREAKAKQEKVSAQYLSEIEMAKAQRDYELKKAAYDIEVNTRRAQADLAYQLQVAKTKQQIEEQRVQVQVVERAQQVAVQEQEIARREKELEARVRKPAEAERYKLERLAEAEKSQLIMQAEAEAASVRMRGEAEAFAIGARARAEAEQMAKKAEAFQLYQEAAQLDMLLEKLPQVAEEISGPLTSANKITLVSSGSGTMGAAKVTGEVLDILTRLPESVERLTGVSISQVNHKPLRTA
notes: flotillin-1, endogenous in human HaCaT keratinocytes; also called Flot-1; source: endogenous, HaCaT lysate
[1]
  relative amount pulled down (normalised to the fusion protein), against the Dsg1 and Dsg2 pulldowns: ~2 fold
